According to PMC12355757, “TRIM6 ablation reverses ICB resistance in MSS gastric cancer by unleashing cGAS-STING-dependent antitumor immunity” (Journal of Experimental & Clinical Cancer Research : CR, 2025):

Target: T1, Recombinant His-cGAS (human, UniProt Q8N884 1-522)
T1 construct: cGAS cloned into the pET28a plasmid for the GST pull-down; also called purified His-cGAS
Test: pull-down; purified His-cGAS incubated with GST, GST-TRIM6 or its truncated mutants on GST-tag resin overnight at 4 °C; 50 mM Tris pH 8.0, 200 mM NaCl, 1 mM EDTA, 1% NP-40, 1 mM DTT, 1 mM MgCl2; immunoblot with anti-His or anti-cGAS
Conditions: both partners purified

T1 sequence (Q8N884 whole entry): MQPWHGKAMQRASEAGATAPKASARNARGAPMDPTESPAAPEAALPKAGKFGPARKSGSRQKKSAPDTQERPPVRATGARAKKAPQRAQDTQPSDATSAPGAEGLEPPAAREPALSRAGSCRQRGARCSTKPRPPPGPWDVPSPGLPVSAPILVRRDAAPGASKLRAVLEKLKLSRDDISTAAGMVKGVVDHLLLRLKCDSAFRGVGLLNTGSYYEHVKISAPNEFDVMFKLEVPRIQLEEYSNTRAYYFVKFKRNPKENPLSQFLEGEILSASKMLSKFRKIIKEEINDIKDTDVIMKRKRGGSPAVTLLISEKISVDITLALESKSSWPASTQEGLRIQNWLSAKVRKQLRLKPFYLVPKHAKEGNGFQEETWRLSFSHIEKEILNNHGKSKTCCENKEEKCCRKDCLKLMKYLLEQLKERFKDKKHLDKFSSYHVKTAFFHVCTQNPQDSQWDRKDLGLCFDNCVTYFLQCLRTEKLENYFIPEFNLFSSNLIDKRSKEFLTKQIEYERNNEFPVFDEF

B1: GST-TRIM6 (full length) (enzyme, human, UniProt Q9C030-2 1-516, looked up)
chain: MCGSERILQAGNILEIRVGQAGARRVATMTSPVLVDIREEVTCPICLELLTEPLSIDCGHSFCQACITPNGRESVIGQEGERSCPVCQTSYQPGNLRPNRHLANIVRRLREVVLGPGKQLKAVLCADHGEKLQLFCQEDGKVICWLCERSQEHRGHHTFLVEEVAQEYQEKFQESLKKLKNEEQEAEKLTAFIREKKTSWKNQMEPERCRIQTEFNQLRNILDRVEQRELKKLEQEEKKGLRIIEEAENDLVHQTQSLRELISDLERRCQGSTMELLQDVSDVTERSEFWTLRKPEALPTKLRSMFRAPDLKRMLRVCRELTDVQSYWVDVTLNPHTANLNLVLAKNRRQVRFVGAKVSGPSCLEKHYDCSVLGSQHFSSGKHYWEVDVAKKTAWILGVCSNSLGPTFSFNHFAQNHSAYSRYQPQSGYWVIGLQHNHEYRAYEDSSPSLLLSMTVPPRRVGVFLDYEAGTVSFYNVTNHGFPIYTFSKYYFPTTLCPYFNPCNCVIPMTLRRPSS
notes: TRIM6, human, full-length, cloned into the pGEX-6T-1 vector; also called full-length TRIM6
- binding result: binds
